{"source": "the DeepSol protein solubility set", "data": [{"assay": "soluble on expression in E. coli; label from the status in PepcDB or PDB records", "values": [{"sequence": "MELVHGISTHFIQSKKFKTNKITVRFTAPLSLDTIAGHMLSASMLETANQMYPTSQDLRRHLASLYGTDMSTNCFRRGQSHIIELTFTYVRDEFLSRKNVLTSQILELVKETLFSPVVVDNGFDPALFEIEKKQLLASLAADMDDSFYFAHKELDKLFFHDERLQLEYSDLRNRILAETPQSSYSCFQEFLANDRIDFFFLGDFNEVEIQNVLESFGFKGRKGDVKVQYCQPYSNILQEGMVRKNVGQSILELGYHYCSKYGDEQHLPMIVMNGLLGGFAHSKLFTNVRENAGLAYTISSELDLFSGFLRMYAGINRENRNQARKMMNNQLLDLKKGYFTEFELNQTKEMIRWSLLLSQDNQSSLIERAYQNALFGKSSADFKSWIAKLEQIDKDAICRVANNVKLQAIYFMEGIE", "soluble on expression in E. coli": "not soluble"}, {"sequence": "MSLGLGSSNRQTDDWNAKLYDERHRFVSAYGEDLIQWLAPKEGECVLDLGCGTGDLTEQIHQLGSRVIGVDVSESMIEQAKGKFPHLDFQVAEATDLSFSEKFDAIFSNAVLHWIKDAEEALTVIYRSLKPGGRFVAEFGGKGNVETIVNTLADTMSQADSRWSKEELPWFFPSIGQYTSLMEQVGFRVTHALHFNRPTLLEDGDGIRHWLAMFAESVLEGKSETERAEIVRFVEAEVKDALFDGTNWWADYKRIRVVGMKQEGHHHHHH", "soluble on expression in E. coli": "not soluble"}, {"sequence": "MKQMNVVLIGGGTGLSVLARGLREFPIDITAIVTVADNGGSTGKIRDVMDIPAPGDIRNVIAALSDSESILTQLFQYRFGENQVDGHSLGNLVIAGMTNITNDFGHAIKELSKVLNIKGQVIPSTNASVQLNAVMEDGEIVHGETNIPKTHKKIDRVFLEPSDVEPMNEAIEALEQADLIVLGPGSLYTSVISNLCVKGISEALLRTSAPKLYVSNVMTQPGETDNYDVKEHIDALTRQVGEPFIDFVICSSESYSKDVLQRYEEKNSKPVAVHKEQLKDSGIRVLTASNLVEISNEHYVRHNTKVLSKMIYELALELTSTIRFTPSDKKKMAGDPLEHHHHHH", "soluble on expression in E. coli": "soluble"}, {"sequence": "MIYTLENQHLKISLSNHGGELHSIKGKKDNTEFLWSGDEAYWKYHAPILFPIVGKVFNGKYTVDGITYELPQHGLARVRDFEMIEQTKNSISFELKYSEDTLKVYPFKFSLIIKYTLNDINLSIDYIVKNLDNKEMYFSIGAHPAFMCPIENDKFDDYYFEFNKKENASIMQLVGPGYFSKEEKPYLKDEHIINLSTDLFKNDALVFKNLKSNKISLKSKNHKKYLEFDFGEFPYLGLWTKDTGAPFVCIEPWFGHADFDGFNGEFKDKAAIQSLMPNKEFHCNYNISFFELEHHHHHH", "soluble on expression in E. coli": "soluble"}, {"sequence": "EGNITTVYFRSRDITAQKIAEKVLLDNERKLKTVYENSIQFLTVLDLDRKFIWFNKNARDRSPAVFGKDLIVGEVAESYIAKEYRTGFVENFNKAVAGETITYTRKYALNNAPFFLELSLAPVYNNDNTVVGVALTGIN", "soluble on expression in E. coli": "not soluble"}, {"sequence": "MTGEKLLYIETFGCQMNVSDSEKVASLLRGEGYSQTPDSSEADLIIVNTCSVRAKAEHKVYSYLGRFRKLKRDRRLLLGVGGCVAQQEGERLLKRVPWLDLVFGTHNLHLLPEMVRAAEQGERRAAVDFIDNEARLDLFPQADEGGGVTRFVTVMQGCDNFCSYCIVPYVRGREISRRSVEIIGEIRSAVAGGVREVTLLGQNVNSYGLKTPGELSFAGLLREISAIDGLERIRFTTSHPKDISPELIACFAELPKLCGHIHLPAQAGSDSILARMNRGYTRQEYLEKVAALRAARPEILITGDIIVGFPGETEADFLQTLSLMEEVRYTDIFSFAYSPRPETAAASLGDRIMRKETTERLERVQGLQRDMTIERHAGFVGTCQAVLVEGMSKRGDQLYGRTDGNLIVNFAGNPSLAGSLVDVRITRGYPNSLLGELAVFQ", "soluble on expression in E. coli": "soluble"}, {"sequence": "MAHHHHHHMSGDLLEILGESRNWVLKRHRVLGKGGFGCATLYEEVHTPGSFVVVKDINMQIMKKEEEMKAVEMEVAILRRSCGHPNIVQFLDYYHDGQFMMYIVMEYCEGGDLARLEEQMQFRVFHQPERFVASILIQMLVGLYYLHVDQHTLHRDIKPQNVFLCSDGTIRIGDFGVSTVLNQYGCRAKAVCGSPFYMAPELCEEKAYDGKADLWSLGVMMYELMVLERPFNAKSIPALTRQIIHGEFSPIPRELHYSAQLVEMVESFLQTSPTARPTLRRVLRSSYVHSHLDCVPIVCLLSDHYARLFGEELLQQILQKHKDSTNTTSQVTTVVSRNSASVQEVERCKNHSDHSDSASAQPLAHQEISELEQWLEANGDVTDAFIDAQLPRNRADGQELSNSPSDIGRAVKTGRVFSDDIMDDSISSEQGKGQQAEDDVRDDFYEDDFESESSG", "soluble on expression in E. coli": "soluble"}, {"sequence": "MSLKLPGKIAIMGGGSWATAIAKMCLAQEDSINWYMRRDDRIADFKRLGHNPAYLTGVKFDTKRITFSSNINDVVKESDTLIFVTPSPYLKAHLKKLKTKIKDKFIITAIKGIVPDDNVIVSEYFTKEYGVPPENIAVLAGPCHAEEVALERLSYLTIACPDKDKARIFARRLGSSFIKTSVSDDVAGIEYSSVLKNVYAIAAGICSGLKYGDNFQAVLISNAIQEMNRFLNTVHPLNRNVDDSVYLGDLLVTGYSNFSRNRTFGSMIGKGYSVKSAQIEMEMIAEGYYGTKCIKEINKHHHVNMPILDAVYNILYERISPMIEIKLLTDSFREGHHHHHH", "soluble on expression in E. coli": "soluble"}, {"sequence": "MARKLIDISVPLQNDVPADPPGNHPTIQYIDHQQGLPRMLQFFPGLKAEDLPDGQGWAVEQVSLSTHNGTHLDAPWHFHPTMNRGERALTIDEVPLDWCLQPGVKLDFRHLPDGYVVTAKDVENELERIGHTLAPLEIVVVNTSAGAKFGRPDYVNSGCGVGYEATMYLLERGVRLTGTDAWSWDAPFVFTAQRYAETKDASLIWEGHKASRHIGYCHLEKLHNLELLPATGFMVSCFPVKIERASAGWTRAVAILNDAAALEHHHHHH", "soluble on expression in E. coli": "soluble"}, {"sequence": "GMASAIIETAIPQSEMTASATSEEGQDPASSAIDGNINTMWHTKWNGSDALPQSLSVNLGKARKVSSIAITPRTSGNNGFITKYEIHAINNGVETLVAEGTWEENNLVKTVTFDSPIDAEEIKITAIQGVGGFASIAELNVYE", "soluble on expression in E. coli": "soluble"}, {"sequence": "MHRRAVVLFTAALLLGLGLPRASAESRQDEPTSLITSPGYTRTTASPGPGLTLFTYQNPDDDRVVHVLRADPDAAPLTVESTAGTSGARAEKTTDMLKSTTGYAPRWPHAGLNGGFWYRQGDTLAFMGISVQEGVVQSASCSAAGRGEAALIQHGRPYIGDFTTHLAVTAPGAAPMPLDGVNRHPGWMTGCAQGSGATADRSIGGGVFADASEIIAFTSRFKAPTPVPDADARFTEDDDPGAEAVVAADGTVLSLNPNGRGGVTVPTGGRVLQGTGTGADWLRAHATPGTDLAFEERLHDERFGDDIPLDSSVDVVNGHYPLVHNAQYAYTGQNTAVDPRSAIAVDGPGRTLFVTATGKSGRNGVTLDEFARILLDLGAVDGLNMDGGGSTTLVVEQAVVNRPSDSTGERPVADSLYIGHGGYGHYADLEHHHHHH", "soluble on expression in E. coli": "not soluble"}, {"sequence": "MEFDKGQTLGNFIDRIRLNGYNTECVFNQSICQDIKNHYKQQCCAMCGVRGNSENTQIEVDHKDGRKDDSRVSDLSTQAFDDFQALCKACNDKKRQICKKCKETGYRFDARKIPGNHYSFYEGEAEYDGCVGCYQYDPIQYRKTCNDRIYNEGYQKGYSDGYQIGYHQKTTL", "soluble on expression in E. coli": "not soluble"}, {"sequence": "MSLNSYVLGFKEIDKTKISMVGGKGANLGELSRVAGILIPEGFCVTTEAYKKIIEKSKEFNELLDELSCLRLEDGEKVYEVSKKIRMVIERISIPKDIVEEIDVYLTRLGEKDAYAVRSSATAEDLPTASFAGQQDTYLNIIGKKSILEHISKCWASLFTDRAVIYRLQNGFDHRKVYISVVIQKMIFPKAAGILFTADPVNSNRKVLSIDASFGLGEALVSGLVNADMYKVLSGKITDKKVSKKKLAIYASKDGGTKAQELEIEKQNKQVLTEEQILQLEHIGRSIEEHFSFPQDIEWCLNQDTFYILQSRPITTLYPIPKANDEENHVYISVGHQQMMTDPLKPLGMSLYELTSFGNRFKAGGRLFFDVTQMLASKDSRKMLLNNMEQHDPLMKDALVTIIERDFIKALPSDNGNQSKSNKGVSAGESENQIENNPTIVSDLINKNQASIEELKENIKTKSGLELIDFIRTDVEELKKILSDPQSSAVFMTAINASHWINEKMRDWLGEKNAADILSQSVPNNITSKMGLELLEIADVIRPYPEIIDYLQHVKDDNFLEEIVKFNGGHEVKNAILSYLSKYGMRCSGEIDITRTRLSEKPITLVPMILNNIKNFETGAANIKFQQGKQKALEKEQELLERLKQLPDGEQKAKETKRMIKLIRNFIGYREYPKYGMVNRYFIYKQALMKEAEKLANIGAIHEKEDIYYLTFEELREVIRTKKVDYSIINKRKNEHKLYEKLIPPRVITSDGEIVEGEYKRENVPEGAIIGLSVSSGVIEGRARVILNMEDANLEAGDILVTSFTDPSWTPLFVSIKGLVTEVGGLMTHGAVIAREYGLPAVIGVENATKLIKDGQQIRVNGTEGYVEILEGHHHHHH", "soluble on expression in E. coli": "soluble"}, {"sequence": "MGSDKIHHHHHHMIMQLDCALYQHPKLITVFGGSGFVGRHVVEALTKRGYRVRIAVRSPQKAYYMLQIGEVGQTQMLRTDIKCRASVARALLGSDGAVFLPGSLAQANQPNFQKTQIEGAQNVSELTAEAGIPLIYMSALVANKNASFLYARVKSMSEEIIHNEHPQAIIMRPSIIFGPEDCFFNNLANLSCFLPIIPLFGGGQSKLQPVYVGDVAEFIVRALEGQVISGKSYDLGGPQIITFQNVLEYILKIIHRKKTILSMPLSAGLFIGGLLGTIGKLPLAPTLVTASQIRFLQIDNIVSQEAIENGYTLEGVGITPKAMAALLPSYLWRFRPHGQFSRNLPA", "soluble on expression in E. coli": "not soluble"}, {"sequence": "MTVGVGGSTPAQALERLRNMMDGAQPIGLASYRARIAAAQAWMGEHGIAAAYLHAGSNLRYFSGVQWHPSERLVGALLPAEGALEYLAPAFEEGTVRDFQVVDGAIHTWEEHQDPYRLLLDRLEALGVGERSTVALCPSLPFGMFERLRQQAPGRNFVSAAPLIDQGRMRKSAEELALMQRAKDMTLEVQKAAASILREGISTTEVAEFIHQAHRKVGAPGSTFCIVLFGAASAFPHGVKHAQVLKDGDMVLIDTGCQVHGYQSDITRSYVFGTPSARQREFWGMERDAQLAAFEAARLGQPCEAVDAAARRSLEANGLGPDYRLPGLPHRTGHGIGMDVHEGPYLVRGDRTPLDVGMCFSNEPMICVPGEFGIRLEDHFYMTKEGPRWFT", "soluble on expression in E. coli": "not soluble"}, {"sequence": "MGSDKIHHHHHHMNINISGKRVLVTASTEGIGRGIAEAFLREGCNVVISSRNKDKIEKAILEMRKIGPSVWGFPADLTDFKSLEELVGYALKIMNGIDILVVNSGNPPKEPSYFFENTMEDWEYATKLYLLSAIKLTNLVYQYMKAQRWGRIFFLSSWTIKEPQRIFSLADITRAPLIQMAKLLSKELGEYNVNVNVILMGSFETEGAKRSLKKYAEKVGQPLDVIWKREVISQIPIGRTGDIKNELGSLLVFLSSDYAGYINGTSILIDGGMSRAI", "soluble on expression in E. coli": "not soluble"}, {"sequence": "MKNIKMPVLVLAAEKDHITPPESVTAFFEKIPSKDKKLLLSDKGHIGLTVSGSSHRKIWPEAIKWVVERSK", "soluble on expression in E. coli": "not soluble"}, {"sequence": "MNKIFLTAAALVLGACGFHLKGADGISPPLTYRSWHIEGGQALQFPLETALYQASGRVDDAAGAQMTLRIDSVSQNKETYTVTRAAVINEYLLILTVEAQVLKRGEPVGKPMTVSVRRILDYADNEILGKQEEEETLWAEMRQDVAEQIVRRLTFLKAELEHHHHHH", "soluble on expression in E. coli": "soluble"}, {"sequence": "MTESKTAIIFDMDGVLVDSEAYYYERRKAFLAEFDLTIEGLTLPELVGADMRSLWQKIEQVNKKELDIAFLNEQYIAYKKAHPIDYLAVLDENAKRVLQFLKRQGYKIGLASSSTKDAIEEVLTVGQLSSYFDAVVSGEDFEESKPAPDIYLHTLQELAVAPQECIAIEDSEKGIASAKEAGLEVWAMRDEHFGMDQSQADAFLTQLSDICKKISENRIDESSESTPS", "soluble on expression in E. coli": "not soluble"}, {"sequence": "IVRACRFMAERQIGALIVIERQQNIEDLIEGCIYLDAYITAELIITIFYPLTPLHDGAVVIRDDRIAFASCVLPLSKNPELPKKYGTRHRAAVGITEMSDAVAIVVSEETGEISVAVEGNI", "soluble on expression in E. coli": "soluble"}]}]}
